Where a chain is given by its changes, count along the chain named.
What was measured:
Experiment in all cases: SPR, KD relative to WT C2;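 further: biacore SPR at 37 °C, anti-C2 mAbs captured via immobilised goat anti-human IgG, C2 alanine or serine surface mutants as analytes, 1:1 model fitted, double-referenced sensograms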
human C2 N703A = biological target: T1, human C2 N703A (human, UniProt P06681 21-752)
T1 sequence: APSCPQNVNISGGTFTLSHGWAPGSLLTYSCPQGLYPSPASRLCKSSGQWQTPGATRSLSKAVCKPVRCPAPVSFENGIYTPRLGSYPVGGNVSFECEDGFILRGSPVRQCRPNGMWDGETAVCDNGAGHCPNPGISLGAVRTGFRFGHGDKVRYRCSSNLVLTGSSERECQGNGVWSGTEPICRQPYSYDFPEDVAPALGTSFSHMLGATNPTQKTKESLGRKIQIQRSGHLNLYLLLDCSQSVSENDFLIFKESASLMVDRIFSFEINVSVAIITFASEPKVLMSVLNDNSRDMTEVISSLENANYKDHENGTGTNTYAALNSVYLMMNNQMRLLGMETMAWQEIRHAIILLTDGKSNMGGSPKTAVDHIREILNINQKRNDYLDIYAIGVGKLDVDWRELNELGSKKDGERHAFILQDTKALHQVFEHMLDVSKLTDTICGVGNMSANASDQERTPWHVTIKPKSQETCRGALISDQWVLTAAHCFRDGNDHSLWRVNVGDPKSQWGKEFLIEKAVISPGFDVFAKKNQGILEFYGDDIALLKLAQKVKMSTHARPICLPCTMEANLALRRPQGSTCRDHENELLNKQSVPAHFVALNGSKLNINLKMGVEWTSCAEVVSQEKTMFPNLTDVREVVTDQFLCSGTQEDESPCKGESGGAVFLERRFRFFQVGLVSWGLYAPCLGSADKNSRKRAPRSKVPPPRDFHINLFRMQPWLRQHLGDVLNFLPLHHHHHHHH

human C2 D710A = biological target: T2, human C2 D710A (human, UniProt P06681 21-752)
T2 sequence: T1 sequence with A683N, D690A

human C2 A326S = biological target: T3, human C2 A326S (human, UniProt P06681 21-752)
T3 sequence: T1 sequence with A306S, A683N

human C2 N621A = biological target: T4, human C2 N621A (human, UniProt P06681 21-752)
T4 sequence: T1 sequence with N601A, A683N

B1: RF16-226 (antibody, human IgG4 S228P, lambda)
heavy: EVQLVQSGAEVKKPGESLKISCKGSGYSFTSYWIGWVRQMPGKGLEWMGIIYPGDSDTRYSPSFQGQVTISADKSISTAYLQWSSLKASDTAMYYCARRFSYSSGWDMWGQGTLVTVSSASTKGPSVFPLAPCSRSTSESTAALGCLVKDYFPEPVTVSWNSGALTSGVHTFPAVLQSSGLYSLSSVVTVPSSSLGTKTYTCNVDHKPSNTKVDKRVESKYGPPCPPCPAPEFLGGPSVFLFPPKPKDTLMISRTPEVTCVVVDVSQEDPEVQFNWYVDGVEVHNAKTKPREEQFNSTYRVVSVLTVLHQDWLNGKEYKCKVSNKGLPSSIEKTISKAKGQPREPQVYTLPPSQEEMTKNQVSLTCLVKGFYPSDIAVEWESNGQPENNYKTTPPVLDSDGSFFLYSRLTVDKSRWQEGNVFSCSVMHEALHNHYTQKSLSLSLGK
light: SYELTQPPSVSVSPGQTARITCSGDALTSKYVAWYQQKSGLAPLLVIYEDTRRPSGIPAKFSGSSSGSVATLTISGAHGDDEADYYCYSTDASGHQRVFGGGTKLTVLSQPKAAPSVTLFPPSSEELQANKATLVCLISDFYPGAVTVAWKADGSPVKAGVETTKPSKQSNNKYAASSYLSLTPEQWKSHRSYSCQVTHEGSTVEKTVAPTECS
notes: pH-dependent anti-C2 antibody from a phage display library; also called WT
Fold diff (human C2 N703A): 29 fold | Fold diff (human C2 D710A): 10 fold | Fold diff (human C2 A326S): 1 fold | Fold diff (human C2 N621A): 5 fold

Source: patent US20220332804A1 (CSL INNOVATION, published 2022)
